# Results: the supplement of paper PMC9112550, “Optimization of the antimicrobial peptide Bac7 by deep mutational scanning” (BMC Biology, 2022)
# Tested on: Escherichia coli TOP10
# Assay: shrunken log2 fold change of peptide-encoding DNA abundance (4.5 h post-induction vs induction); higher = less antimicrobial activity (less host growth inhibition)
# Conditions: time post-induction: 4.5 h; library: site-saturation at positions 5, 18, 19, 20
# 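Note: peptides expressed intracellularly from a pBAD plasmid library in pooled LB shake-flask culture, induced with 0.3% L-arabinose, DNA abundance read by NGS, three biological replicates, DESeq2 with apeglm shrinkage.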
row,Sequence,shrunken log2 fold change
1,RRIRYRPPRLPRPRPRPVMKPRP,-0.131
2,RRIRARPPRLPRPRPRPCVAPRP,0.715
3,RRIRQRPPRLPRPRPRPYQKPRP,-0.0335
4,RRIRARPPRLPRPRPRPVDNPRP,0.0773
5,RRIRSRPPRLPRPRPRPVIYPRP,-0.226
6,RRIRNRPPRLPRPRPRPFGDPRP,0.0215
7,RRIRTRPPRLPRPRPRPIYWPRP,-0.157
8,RRIRNRPPRLPRPRPRPQCKPRP,-0.0743
9,RRIRYRPPRLPRPRPRPDFHPRP,-0.695
10,RRIRTRPPRLPRPRPRPFMTPRP,-0.12
11,RRIRDRPPRLPRPRPRPLNKPRP,-0.295
12,RRIRGRPPRLPRPRPRPECDPRP,2.16
13,RRIRPRPPRLPRPRPRPAKWPRP,0.0878
14,RRIRCRPPRLPRPRPRPEMFPRP,0.00455
15,RRIRYRPPRLPRPRPRPYKIPRP,-0.573
16,RRIRARPPRLPRPRPRPEQKPRP,1.29
17,RRIRLRPPRLPRPRPRPRMMPRP,0.189
18,RRIRMRPPRLPRPRPRPGTAPRP,0.793
19,RRIRQRPPRLPRPRPRPCVAPRP,0.317
20,RRIRWRPPRLPRPRPRPLPWPRP,0.244
21,RRIRTRPPRLPRPRPRPQQCPRP,-0.0115
22,RRIRPRPPRLPRPRPRPYERPRP,0.0304
23,RRIRNRPPRLPRPRPRPYDPPRP,-0.00192
24,RRIRKRPPRLPRPRPRPPIRPRP,-0.104
25,RRIRMRPPRLPRPRPRPDSHPRP,-0.025

row,Sequence,shrunken log2 fold change
1,RRIRRRPPRLPRPRPRPDMRPRP,0.415
2,RRIRQRPPRLPRPRPRPGQKPRP,-0.00973
3,RRIRTRPPRLPRPRPRPNRYPRP,-0.19
4,RRIRKRPPRLPRPRPRPCFIPRP,-0.13
5,RRIRPRPPRLPRPRPRPDPSPRP,0.265
6,RRIRSRPPRLPRPRPRPCWRPRP,0.106
7,RRIRHRPPRLPRPRPRPRVAPRP,0.395
8,RRIRWRPPRLPRPRPRPILNPRP,-0.362
9,RRIRPRPPRLPRPRPRPYRVPRP,0.101
10,RRIRIRPPRLPRPRPRPCMQPRP,-0.0295
11,RRIRPRPPRLPRPRPRPELMPRP,-0.109
12,RRIRARPPRLPRPRPRPPLHPRP,0.467
13,RRIRQRPPRLPRPRPRPVEEPRP,-0.0284
14,RRIRCRPPRLPRPRPRPGLPPRP,0.143
15,RRIRKRPPRLPRPRPRPDERPRP,-0.00101
16,RRIRGRPPRLPRPRPRPEKHPRP,0.617
17,RRIRGRPPRLPRPRPRPCPGPRP,-0.0819
18,RRIRKRPPRLPRPRPRPALIPRP,0.2
19,RRIRDRPPRLPRPRPRPNDKPRP,-0.555
20,RRIRARPPRLPRPRPRPKCFPRP,-0.0172
21,RRIRYRPPRLPRPRPRPQAHPRP,-0.149
22,RRIRSRPPRLPRPRPRPQPDPRP,-0.185
23,RRIRHRPPRLPRPRPRPDNSPRP,-1.1
24,RRIRDRPPRLPRPRPRPAQWPRP,0.395
25,RRIRWRPPRLPRPRPRPCLYPRP,-0.0689

row,Sequence,shrunken log2 fold change
1,RRIRERPPRLPRPRPRPNRLPRP,-0.0671
2,RRIRSRPPRLPRPRPRPILSPRP,-0.329
3,RRIRWRPPRLPRPRPRPFNQPRP,-0.494
4,RRIRLRPPRLPRPRPRPNPPPRP,0.0837
5,RRIRFRPPRLPRPRPRPPCKPRP,0.352
6,RRIRLRPPRLPRPRPRPWGHPRP,0.105
7,RRIRKRPPRLPRPRPRPACMPRP,0.605
8,RRIRSRPPRLPRPRPRPIFQPRP,-0.0307
9,RRIRTRPPRLPRPRPRPWYSPRP,-0.818
10,RRIRARPPRLPRPRPRPGFVPRP,0.42
11,RRIRGRPPRLPRPRPRPAHNPRP,0.157
12,RRIRVRPPRLPRPRPRPRHSPRP,0.292
13,RRIRQRPPRLPRPRPRPENHPRP,-0.176
14,RRIRIRPPRLPRPRPRPQHQPRP,-0.344
15,RRIRYRPPRLPRPRPRPTWQPRP,-0.255
16,RRIRERPPRLPRPRPRPGGPPRP,-0.00661
17,RRIRYRPPRLPRPRPRPHITPRP,-0.538
18,RRIRPRPPRLPRPRPRPPDAPRP,0.553
19,RRIRVRPPRLPRPRPRPDMDPRP,-0.154
20,RRIRVRPPRLPRPRPRPFEWPRP,-0.102
21,RRIRRRPPRLPRPRPRPPRHPRP,1.08
22,RRIRVRPPRLPRPRPRPYWPPRP,-0.182
23,RRIRIRPPRLPRPRPRPGQGPRP,-0.257
24,RRIRMRPPRLPRPRPRPNWCPRP,0.0361
25,RRIRWRPPRLPRPRPRPIACPRP,0.0997

row,Sequence,shrunken log2 fold change
1,RRIRPRPPRLPRPRPRPNEEPRP,-0.0581
2,RRIRSRPPRLPRPRPRPRGCPRP,0.383
3,RRIRQRPPRLPRPRPRPCSIPRP,-0.022
4,RRIRPRPPRLPRPRPRPPHLPRP,0.024
5,RRIRSRPPRLPRPRPRPTSMPRP,-0.187
6,RRIRMRPPRLPRPRPRPLVYPRP,0.19
7,RRIRHRPPRLPRPRPRPMRCPRP,0.309
8,RRIRTRPPRLPRPRPRPPHYPRP,0.0354
9,RRIRYRPPRLPRPRPRPEAVPRP,0.0685
10,RRIRNRPPRLPRPRPRPCLIPRP,-0.018
11,RRIRGRPPRLPRPRPRPMGKPRP,0.375
12,RRIRRRPPRLPRPRPRPLVGPRP,0.239
13,RRIRYRPPRLPRPRPRPLGFPRP,-0.662
14,RRIRERPPRLPRPRPRPQLFPRP,0.0984
15,RRIRMRPPRLPRPRPRPEHWPRP,-0.00593
16,RRIRLRPPRLPRPRPRPGHTPRP,0.183
17,RRIRYRPPRLPRPRPRPCVRPRP,0.0523
18,RRIRRRPPRLPRPRPRPFDQPRP,0.0321
19,RRIRHRPPRLPRPRPRPWHIPRP,-0.864
20,RRIRDRPPRLPRPRPRPYEQPRP,-0.0135
21,RRIRLRPPRLPRPRPRPLKEPRP,0.00325
22,RRIRHRPPRLPRPRPRPGVSPRP,0.0185
23,RRIRVRPPRLPRPRPRPKHSPRP,-0.189
24,RRIRHRPPRLPRPRPRPCIPPRP,-0.809
25,RRIRPRPPRLPRPRPRPWMVPRP,0.0262

row,Sequence,shrunken log2 fold change
1,RRIRPRPPRLPRPRPRPQMAPRP,0.129
2,RRIRWRPPRLPRPRPRPWKIPRP,-0.0733
3,RRIRSRPPRLPRPRPRPPVNPRP,-0.489
4,RRIRCRPPRLPRPRPRPWLLPRP,-0.381
5,RRIRGRPPRLPRPRPRPPRRPRP,1.28
6,RRIRPRPPRLPRPRPRPGEWPRP,0.214
7,RRIRARPPRLPRPRPRPVRFPRP,0.828
8,RRIRSRPPRLPRPRPRPMVYPRP,-0.111
9,RRIRRRPPRLPRPRPRPQKNPRP,0.204
10,RRIRRRPPRLPRPRPRPADQPRP,0.0865
11,RRIRIRPPRLPRPRPRPKNQPRP,-0.359
12,RRIRVRPPRLPRPRPRPDNVPRP,0.171
13,RRIRRRPPRLPRPRPRPEDQPRP,0.196
14,RRIRARPPRLPRPRPRPNAYPRP,0.0893
15,RRIRIRPPRLPRPRPRPDAGPRP,0.158
16,RRIRERPPRLPRPRPRPVPLPRP,-0.244
17,RRIRQRPPRLPRPRPRPKMYPRP,-0.544
18,RRIRTRPPRLPRPRPRPPSTPRP,0.186
19,RRIRQRPPRLPRPRPRPKQCPRP,-0.288
20,RRIRARPPRLPRPRPRPYKFPRP,-0.279
21,RRIRIRPPRLPRPRPRPWCQPRP,-0.339
22,RRIRSRPPRLPRPRPRPIQIPRP,-0.0243
23,RRIRRRPPRLPRPRPRPWFRPRP,0.0331
24,RRIRERPPRLPRPRPRPDGQPRP,-0.388
25,RRIRERPPRLPRPRPRPFEAPRP,-0.342

row,Sequence,shrunken log2 fold change
1,RRIRARPPRLPRPRPRPELPPRP,1.5
2,RRIRPRPPRLPRPRPRPFIFPRP,0.29
3,RRIRERPPRLPRPRPRPHFQPRP,0.0177
4,RRIRTRPPRLPRPRPRPALAPRP,0.425
5,RRIRHRPPRLPRPRPRPAIAPRP,0.0527
6,RRIRIRPPRLPRPRPRPRMTPRP,0.043
7,RRIRVRPPRLPRPRPRPFIWPRP,-0.0481
8,RRIRKRPPRLPRPRPRPMQLPRP,0.197
9,RRIRVRPPRLPRPRPRPHSLPRP,-0.232
10,RRIRERPPRLPRPRPRPTPFPRP,-0.211
11,RRIRHRPPRLPRPRPRPMFFPRP,-0.347
12,RRIRARPPRLPRPRPRPKIDPRP,0.115
13,RRIRWRPPRLPRPRPRPAHGPRP,0.707
14,RRIRWRPPRLPRPRPRPNYFPRP,-0.167
15,RRIRLRPPRLPRPRPRPWNTPRP,-0.444
16,RRIRPRPPRLPRPRPRPAVCPRP,0.245
17,RRIRSRPPRLPRPRPRPAYNPRP,-0.00937
18,RRIRLRPPRLPRPRPRPSIIPRP,-0.735
19,RRIRSRPPRLPRPRPRPMHDPRP,-0.314
20,RRIRDRPPRLPRPRPRPEQQPRP,0.374
21,RRIRNRPPRLPRPRPRPRMGPRP,0.0394
22,RRIRMRPPRLPRPRPRPMVEPRP,0.0167
23,RRIRARPPRLPRPRPRPRGEPRP,0.613
24,RRIRERPPRLPRPRPRPPVVPRP,-0.0806
25,RRIRDRPPRLPRPRPRPVVSPRP,0.0706
